Several values for one entry are separate records, joined by “and”; a condition that tells them apart may be missing. Equal entries are not always repeated.
Molecular target: EGFP-labeled Kif15 (EGFP-Kif15) (human)
Assay: single-molecule fluorescence intensity and photobleaching steps

Substance: EGFP-labeled Kif15 (EGFP-Kif15) (natural protein)
- stoichiometry N: 2 and > 2

From publication PMC5084272
